What is called IC50 is the concentration needed to halve the response being measured.

Experimental findings from US20050054563A1 (Genentech, published 2005) are described below.

Experiment [1] concerns the target T1, mouse WISP-1-IgG (chimeric recombinant mouse WISP-1 bearing a human immunoglobulin Fc fragment tag) (mouse).
T1 construct: also called mWISP-1-IgG; WISP-1-Fc
The experiment in a line: competition solid phase assay: 0.25 nM WISP-1-IgG on coated human skin fibroblast conditioned media, soluble decorin varied. How it is done:
(§1) Decorin and biglycan were coated to microtiter wells overnight. Non-specific binding sites were saturated and 0.25 nM of mWISP-1-IgG was incubated for 2 hours. The wells were washed and incubated with horseradish peroxidase conjugated anti-human IgG Fc′ (2 μg/ml) for 1 hour. After 6 washes with PBS containing 0.05% Tween-20, a signal was developed by the incubation of a chromogenic substrate. The color development was stopped by the addition of 1 M phosphoric acid and the O.D. at 450 nm was measured.
(§2) Fifty microliters of human skin fibroblast conditioned media were coated in wells of microtiter plates. Non-specific binding sites were saturated and 0.25 nM of WISP-1-IgG was incubated in the presence of various concentrations of decorin (filled circles) or biglycan (empty circles) (FIG. 5B) for 2 hours. The binding of mWISP-1-IgG was evaluated as described above.

Experiment [2] has as its target T1, mouse WISP-1-IgG (chimeric recombinant …). The experiment in a line: competition solid phase assay: 0.25 nM WISP-1-IgG on coated human skin fibroblast conditioned media, soluble biglycan varied. How it is done: as §1, §2

T1 sequence (chain, as listed by the source mutant limits assumed): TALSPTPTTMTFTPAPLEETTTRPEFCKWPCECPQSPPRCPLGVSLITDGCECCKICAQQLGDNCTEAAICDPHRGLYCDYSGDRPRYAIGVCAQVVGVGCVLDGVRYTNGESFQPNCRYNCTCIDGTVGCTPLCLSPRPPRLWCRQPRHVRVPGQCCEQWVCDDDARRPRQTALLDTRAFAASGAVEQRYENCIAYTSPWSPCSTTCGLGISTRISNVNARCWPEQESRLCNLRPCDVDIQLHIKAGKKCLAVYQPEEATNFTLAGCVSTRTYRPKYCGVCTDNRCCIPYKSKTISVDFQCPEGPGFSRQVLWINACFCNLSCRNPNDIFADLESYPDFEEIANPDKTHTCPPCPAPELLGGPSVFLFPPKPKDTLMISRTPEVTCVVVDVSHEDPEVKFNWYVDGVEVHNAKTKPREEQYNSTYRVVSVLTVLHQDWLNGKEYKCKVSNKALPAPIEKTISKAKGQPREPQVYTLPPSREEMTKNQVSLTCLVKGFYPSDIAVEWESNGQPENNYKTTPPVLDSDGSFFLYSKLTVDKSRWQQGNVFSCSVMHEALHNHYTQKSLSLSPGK

B1: decorin from bovine articular cartilage (Sigma) (other, UniProt P21793 31-360, looked up)
chain: DEASGIGPEEHFPEVPEIEPMGPVCPFRCQCHLRVVQCSDLGLEKVPKDLPPDTALLDLQNNKITEIKDGDFKNLKNLHTLILINNKISKISPGAFAPLVKLERLYLSKNQLKELPEKMPKTLQELRVHENEITKVRKSVFNGLNQMIVVELGTNPLKSSGIENGAFQGMKKLSYIRIADTNITTIPQGLPPSLTELHLDGNKITKVDAASLKGLNNLAKLGLSFNSISAVDNGSLANTPHLRELHLNNNKLVKVPGGLADHKYIQVVYLHNNNISAIGSNDFCPPGYNTKKASYSGVSLFSNPVQYWEIQPSTFRCVYVRAAVQLGNYK
modifications: proteoglycan; dermatan sulfate glycosaminoglycan chain on the core protein (site not stated for this preparation)
Regarding B1, the IC50 in experiment [1] was 70 µg/mL.

B2: biglycan from bovine articular cartilage (Sigma) (other, UniProt P21809 38-369, looked up)
chain: DEEASGAETTSGIPDLDSLPPTYSAMCPFGCHCHLRVVQCSDLGLKAVPKEISPDTTLLDLQNNDISELRKDDFKGLQHLYALVLVNNKISKIHEKAFSPLRKLQKLYISKNHLVEIPPNLPSSLVELRIHDNRIRKVPKGVFSGLRNMNCIEMGGNPLENSGFEPGAFDGLKLNYLRISEAKLTGIPKDLPETLNELHLDHNKIQAIELEDLLRYSKLYRLGLGHNQIRMIENGSLSFLPTLRELHLDNNKLSRVPAGLPDLKLLQVVYLHTNNITKVGVNDFCPVGFGVKRAYYNGISLFNNPVPYWEVQPATFRCVTDRLAIQFGNYKK
modifications: proteoglycan; glycosaminoglycan chains on the core protein (sites not stated for this preparation)
Take B2: in experiment [2], the IC50 turned out to be 105 µg/mL.
